Experimental data published in US11649275B2, “Dual agonist fusion proteins” (Duke University, priority 2018, dated 2023).
“Also recorded” adds a separate entry of the source.

B1: GLP1-ELP-FGF21: Fusion of GLP-1 analog, ELP (120 VPGXaaG repeats, 4:1 Val:Ala) and mutated murine FGF21; SEQ ID NO:15 (protein)
chain: AAHGEGTFTSDVSSYLEEQAAKEFIAWLVKGAGVGVPGVGVPGAGVPGVGVPGVGVPGVGVPGVGVPGAGVPGVGVPGVGVPGVGVPGVGVPGAGVPGVGVPGVGVPGVGVPGVGVPGAGVPGVGVPGVGVPGVGVPGVGVPGAGVPGVGVPGVGVPGVGVPGVGVPGAGVPGVGVPGVGVPGVGVPGVGVPGAGVPGVGVPGVGVPGVGVPGVGVPGAGVPGVGVPGVGVPGVGVPGVGVPGAGVPGVGVPGVGVPGVGVPGVGVPGAGVPGVGVPGVGVPGVGVPGVGVPGAGVPGVGVPGVGVPGVGVPGVGVPGAGVPGVGVPGVGVPGVGVPGVGVPGAGVPGVGVPGVGVPGVGVPGVGVPGAGVPGVGVPGVGVPGVGVPGVGVPGAGVPGVGVPGVGVPGVGVPGVGVPGAGVPGVGVPGVGVPGVGVPGVGVPGAGVPGVGVPGVGVPGVGVPGVGVPGAGVPGVGVPGVGVPGVGVPGVGVPGAGVPGVGVPGVGVPGVGVPGVGVPGAGVPGVGVPGVGVPGVGVPGVGVPGAGVPGVGVPGVGVPGVGVPGVGVPGAGVPGVGVPGVGVPGVGVPGVGVPGAGVPGVGVPGVGVPGVGVPGVGVPGAGVPGVGVPGVGVPGAYPIPDSSPLLQFGGQVRQRYLYTDDDQDTEAHLEIREDGTVVGAAHRSPESLLELKALKPGVIQILGVKASRFLCQQPDGALYGSPHFDPEACSFRERLLEDGYNVYQSEAHGLPLRLPQKDSPNQDATSWGPVRFLPMPGLLHEPQDQAGFLPPEPPDVGSSDPLSMVEGSQGRSPSYASG
B2: GLP1-ELP: Single agonist control: GLP-1 analog fused to ELP of 120 VPGXaaG repeats, 4:1 Val:Ala; SEQ ID NO:16 (protein)
chain: AAHGEGTFTSDVSSYLEEQAAKEFIAWLVKGAGVGVPGVGVPGAGVPGVGVPGVGVPGVGVPGVGVPGAGVPGVGVPGVGVPGVGVPGVGVPGAGVPGVGVPGVGVPGVGVPGVGVPGAGVPGVGVPGVGVPGVGVPGVGVPGAGVPGVGVPGVGVPGVGVPGVGVPGAGVPGVGVPGVGVPGVGVPGVGVPGAGVPGVGVPGVGVPGVGVPGVGVPGAGVPGVGVPGVGVPGVGVPGVGVPGAGVPGVGVPGVGVPGVGVPGVGVPGAGVPGVGVPGVGVPGVGVPGVGVPGAGVPGVGVPGVGVPGVGVPGVGVPGAGVPGVGVPGVGVPGVGVPGVGVPGAGVPGVGVPGVGVPGVGVPGVGVPGAGVPGVGVPGVGVPGVGVPGVGVPGAGVPGVGVPGVGVPGVGVPGVGVPGAGVPGVGVPGVGVPGVGVPGVGVPGAGVPGVGVPGVGVPGVGVPGVGVPGAGVPGVGVPGVGVPGVGVPGVGVPGAGVPGVGVPGVGVPGVGVPGVGVPGAGVPGVGVPGVGVPGVGVPGVGVPGAGVPGVGVPGVGVPGVGVPGVGVPGAGVPGVGVPGVGVPGVGVPGVGVPGAGVPGVGVPGVGVPGVGVPGVGVPGAGVPGVGVPGVGVPG

Assays:
[1] = LCST phase behavior characterization (turbidity OD350 vs temperature); format: physicochemical
Description: Phase behavior characterization: The lower critical solution temperature (LCST) phase transition behavior of ELP fusion proteins was evaluated by monitoring the OD350 of solutions in PBS as a function of temperature on a Cary 300 UV-visible spectrophotometer equipped with a multicell thermoelectric temperature controller (Agilent Technologies, Santa Clara, Calif.). Heating and cooling were set to a rate of 1° C./min. The Tt was defined as the temperature at which the optical density reached 50% of its maximal value.

[2] = system: db/db mice; assay: Single s.c. injection dose study of GLP1-ELP-FGF21 (ambient blood glucose, body weight); format: in vivo
Description: (§1) Animals: In vivo studies were conducted in accordance with the AAALAC-accredited Duke Institutional Animal Care and Use Committee. 5-week-old B6.BKS(D)-Lepr^db/J (“db/db”) male mice were purchased from Jackson Laboratory (Bar Harbor, Me.) and maintained on a 12 h/12 h light/dark cycle with ad libitum access to food (LabDiet 5053) and water. Animals were group-housed and allowed 1-week acclimation before stratification into control and treatment groups based on baseline ambient blood glucose levels and body weights.
(§2) ELP fusion treatments: ELP fusion proteins were administered at 150-200 μM concentration via injection into the subcutaneous (s.c.) space on the hind flank. Animals received either a single s.c. injection for short-term studies or weekly s.c. injections for chronic studies. The “1:1 mixture” treatment group received a single injection containing an equimolar mixture of GLP1-ELP and ELP-FGF21, with the indicated dose referring to the dose of each respective fusion in the mixture. Vehicle control refers to PBS.
Ambient blood glucose measurements: Blood glucose levels were measured from a tail vein puncture with an AlphaTRAK 2 Blood Glucose Meter (Zoetis, Parsippany-Troy Hills, N.J.) every 24 h, 1-2 h following onset of the light cycle. Data are presented as either raw values, or as a magnitude change from a mean baseline established from three independent measurements collected prior to treatment. Areas under the curve (AUCs) were calculated with GraphPad Prism 8 software using the trapezoidal rule and setting a Y=0 baseline. Treatment group AUCs were normalized to the vehicle-treated group where indicated.

[3] = Pharmacokinetic study of radiolabeled ELP fusion depots after s.c. injection; format: in vivo, mice; conditions: for Cmax / TMAX / AUC / T1/2, ABS (absorption half-life): db/db mice, 1000 nmol/kg; for Cmax / TMAX / AUC / T1/2, ABS (absorption half-life) / steady plasma drug levels: single s.c. injection; for Cmax / TMAX: radiolabeled construct; for AUC: extrapolated to 16 days post-administration; for T1/2, ABS (absorption half-life): from slope of terminal linear regression; for R-squared, first-order model / R-squared, zero-order model / Regression model, first-order elimination (Log(y)): fit to terminal portion of plasma concentration vs time data; for steady plasma drug levels: out to day 10 / for at least 10 days
Description: Pharmacokinetic studies: Tyrosine residues on GLP1-ELP, ELP-FGF21, or GLP1-ELP-FGF21 fusion proteins were reacted with Na^125I radionuclide (Perkin Elmer) using Pierce Pre-Coated Iodination Tubes (Thermo Fisher Scientific) and the indirect method for iodination. Radiolabeled protein was purified from unreacted radionuclide with Zeba Spin Desalting Columns (Thermo Fisher Scientific). Activities of radiolabeled constructs were measured with an Atomlab 400 Dose Calibrator (Biodex, Shirley, N.Y.) and correlated to protein concentration. Mice received a single s.c. injection of radiolabeled fusion, and 10 μL blood samples were collected at frequent time points from the tail vein and stored at room temperature until radioactivity quantification. Sample counts were measured at the end of the study on a Wallac Wizard 1480 Automatic Gamma Counter (Perkin Elmer). An activity vs. count standard curve was used to convert sample counts to activities, and subsequently to moles of drug.
Pharmacokinetic analysis: The maximum serum concentration (Cmax) was recorded as observed, as well as time to reach Cmax (tmax). […] Absorption half-life (t1/2, abs) was estimated from the slope of the linear regression curve. When a drug administered at an extravascular site yields a terminal half-life greater than that resulting from an i.v. bolus, the terminal half-life reflects the absorption half-life.

[4] = system: db/db mice; assay: Chronic dosing study, weekly s.c. for four weeks (GTT, % HbA1c, body weight, food intake); format: in vivo; conditions: for GTT AUC: i.p. glucose tolerance test 3 days after the first dosing cycle; for fasting plasma insulin: prior to glucose challenge; for change in % HbA1c from days 0 to 27: weekly 1000 nmol/kg s.c. for four weeks; for weight gain on chronic treatment: weekly 1000 nmol/kg s.c.
Description: as §1, §2
Food Intake: For food intake studies, animals were group-housed 4 per cage, and food pellets were weighed every 1-2 days. Total cage food intake was calculated for each time increment, averaged per animal, and summed over the course of the study to yield a cumulative food intake per mouse. N=8 treatment groups were divided into 2 cages, allowing for an n=2 food intake standard error calculation.

[5] = system: db/db mice; assay: Hypoglycemia safety check (16 h extended fast, glucose-stimulated insulin in GTT)
Description: Glucose tolerance test: Animals were fasted at the onset of the light cycle for 5 h with ad libitum access to water, then injected via intraperitoneal (i.p.) with 0.75 g/kg D-glucose. Blood glucose levels were measured from a tail snip with a Contour Blood Glucose Meter (Bayer, Leverkusen, Germany) at t=0 (before glucose injection), 10, 20, 30, 60, 90, and 120 min.
Extended fast blood glucose measurements: Animals were fasted for 16 h starting at 4:00 PM with ad libitum access to water, after which blood glucose levels were measured from the tail vein as described for ambient blood glucose measurements.
Blood parameters: 50 μL blood samples were collected from the tail veins following a 6 h fast using Microvette EDTA coated tubes (Sarstedt), which were placed on ice until centrifugation at 5000 rcf at 4° C. for 15 min. Plasma supernatants were stored at −80° C. until time of assay. Plasma insulin levels were quantified using the Mercodia Mouse Insulin ELISA, according to the manufacturers' instructions.

[6] = target: T1, GLP-1R (Homo sapiens, UniProt P43220); assay: cAMP production assay (GLP-1R agonism, HEK293 cells with cAMP-inducible luciferase reporter); format: cell-based; conditions: fusion of GLP1 to ELP or ELP-FGF21
T1 construct: expressed in transfected cells; host or cells: HEK293
Description: This time, however, the intended cleavage substrate was a GA leader instead of the AA leader. […] Data were fit to a three-parameter dose-response curve to determine EC50s.
Cells were seeded at 1×10^5 cells/cm^2 into 96 well plates and adhered overnight. […] Luminescence of the supernatant samples were measured on a Victor X3 Plate Reader (Perkin Elmer) and normalized to zero drug treatment control wells. Data were fit to a three-parameter dose-response curve to determine EC50s using GraphPad Prism 8 software.

[7] = system: db/db mice; assay: Short-term co-treatment pilot study, 48 h after single s.c. injection; format: in vivo; conditions: 48 h post-injection, 1000 nmol/kg s.c.
Description: as §1, §2
(§3) Ambient blood glucose measurements: Blood glucose levels were measured from a tail vein puncture with an AlphaTRAK 2 Blood Glucose Meter (Zoetis, Parsippany-Troy Hills, N.J.) every 24 h, 1-2 h following onset of the light cycle. […] Areas under the curve (AUCs) were calculated with GraphPad Prism 8 software using the trapezoidal rule and setting a Y=0 baseline. […]

[8] = system: db/db mice; assay: GLP1-ELP control, single s.c. injection, glycemia and body weight for 10 days; format: in vivo; conditions: 1000 nmol/kg single s.c.
Description: as §1, §2, §3

[9] = 5 h fast, 3 days after the first dosing cycle, 1000 nmol/kg s.c.
[10] = 3 days after the first dosing cycle

T1 sequence (P43220 24-463, species assumed): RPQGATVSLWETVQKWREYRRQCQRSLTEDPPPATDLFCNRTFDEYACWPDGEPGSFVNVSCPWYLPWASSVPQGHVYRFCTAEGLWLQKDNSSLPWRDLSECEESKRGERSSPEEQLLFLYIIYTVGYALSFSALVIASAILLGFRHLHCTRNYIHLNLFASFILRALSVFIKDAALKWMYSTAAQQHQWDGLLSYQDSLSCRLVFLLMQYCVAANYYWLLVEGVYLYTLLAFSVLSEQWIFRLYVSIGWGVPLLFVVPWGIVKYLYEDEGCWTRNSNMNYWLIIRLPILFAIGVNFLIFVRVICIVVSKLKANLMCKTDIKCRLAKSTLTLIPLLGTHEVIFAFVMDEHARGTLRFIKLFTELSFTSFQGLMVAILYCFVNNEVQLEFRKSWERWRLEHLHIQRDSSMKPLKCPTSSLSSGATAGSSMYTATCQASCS

| Molecule | Cmax [3] [nM] | TMAX [3] [H] | AUC [3] [NM*D] | T1/2, ABS (absorption half-life) [3] [D] | R-squared, first-order model [3] | R-squared, zero-order model [3] | Regression model, first-order elimination (Log(y)) [3] | steady plasma drug levels [3] | fasting blood glucose levels [4, 9] [mg/dL] | food intake ([4]; four-week treatment period) | GTT AUC [4] | fasting plasma insulin [4, 10] | change in % HbA1c from days 0 to 27 [4] | weight gain on chronic treatment ([4]; four-week treatment period) [%] | other results |
| --- | --- | --- | --- | --- | --- | --- | --- | --- | --- | --- | --- | --- | --- | --- | --- |
| B1 | 411 ± 51 | 10.5 ± 1.5 | 1961 ± 59 | 7.6 ± 1.1 | 0.85 | 0.81 | Log(y) = −0.0416x + 2.431 | ~100 nM | 125 ± 6.0 | consuming chow at an equivalent rate to GLP1-ELP | significantly decreased GTT AUC compared to GLP1-ELP or ELP-FGF21 | without a significant elevation in insulin | +0.3±0.2% | 14.1±1.6 | reversibility of phase change behavior ([1]; temperature ramped up to 37° C., then down to 20° C.): reversible; body weight % change on day 7 post-treatment ([2]; 750 nmol/kg): −2.6±3.3%; blood glucose vs. time AUC ([2]; 750 nmol/kg and 1000 nmol/kg, single s.c. injection, vs vehicle): Significant reductions; body weight % change on day 7 post-treatment ([2]; 1000 nmol/kg): −2.7±3.7%; ambient blood glucose levels after treatment ([2]; all doses, reduced from >300 mg/dL): < 150 mg/dL; persistence of blood glucose effects ([2]; highest dose tested, 1000 nmol/kg): 8 days; persistence of blood glucose effects ([2]; lowest dose, 250 nmol/kg): 4 days; duration of therapeutic drug levels and protection from hyperglycemia and weight gain ([2]; single injection): > 7 days; reduction of body weights (maximum) ([2]; two highest doses tested (750 and 1000 nmol/kg)): up to 7.2±2.3%; absorption half-life ([3]; linear regression fit to terminal portion of the data, 1000 nmol/kg s.c.): 182 ± 26.4 h; fasting blood glucose levels ([4]; GTT 3 days following the final treatment): 92.7 ± 8.3 mg/dL; negative net weight gain values persisting through ([4]; weekly dosing): 12 days; blood glucose levels after overnight 16 h fast ([5]; 1000 nmol/kg s.c., fast begun 48 h post-treatment, threshold of hypoglycemia): 50 to 55 mg/dL; ad libitum-fed blood glucose levels ([5]; 48 h post-treatment, 1000 nmol/kg s.c., vs vehicle): significant reductions; blood glucose levels during recovery (return to pre-injection baselines) ([5]; t=60 to t=120 min post-challenge in GTT): -100 mg/dL |
| B2 | 369 ± 14 | 4.8 ± 0.7 | 2023 ± 67 | 20.8 ± 3.2 | 0.61 | 0.58 | Log(y) = −0.01628x + 2.263 | around 100 nM | 167 ± 11 | significant reduction in food intake | outperformed ELP-FGF21 in improving glucose tolerance | significant increase in fasting plasma insulin | +1.0±0.2% | 25.3±1.9 | increase in GLP-1R EC50 compared to native GLP-1 [6]: approximately ten-fold; also recorded: ten-fold increase; Tt (transition temperature) ([1]; PBS, injection-relevant concentration of 200 μM): 27.5 °C; body weight, % change from pre-injection weight [7]: −0.2±0.6%; plasma levels of component of 1:1 mixed depot ([3]; 1:1 mixture, 1000 nmol/kg each, steady for 7 days): around 100 nM; % HbA1c elevation relative to control ([4]; four-week study): significantly reduced % HbA1c elevation relative to control; effect on body weight / weight gain compared to vehicle ([4]; four-week treatment period): significantly inhibited weight gain; weight gain compared to control mice ([8]; daily for 10 days): significantly inhibited weight gain; ambient blood glucose levels after treatment ([8]; reduced from >300 mg/dL for the duration of the 10 day study): < 200 mg/dL |
